Source: US20100291705A1, “ANTIGEN EXPOSING MICELLE AND UNORDERED AGGREGATE” (EURO-DIAGNOSTICA AB, priority 2007, published 2010)

Target: T1, (Homo sapiens, UniProt P02749)
T1 sequence (P02749 20-345): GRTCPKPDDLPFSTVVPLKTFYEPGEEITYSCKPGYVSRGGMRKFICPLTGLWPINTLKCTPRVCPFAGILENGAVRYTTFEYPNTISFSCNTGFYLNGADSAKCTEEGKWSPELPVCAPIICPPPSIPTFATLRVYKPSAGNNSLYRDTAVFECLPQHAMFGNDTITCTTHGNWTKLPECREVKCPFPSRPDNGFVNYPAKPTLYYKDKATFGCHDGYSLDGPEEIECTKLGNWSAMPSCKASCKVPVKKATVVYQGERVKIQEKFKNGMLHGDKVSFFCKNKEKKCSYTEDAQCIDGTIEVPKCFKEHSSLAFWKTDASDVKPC
Assay: Detection of β2-GPI associated to the cardiolipin aggregates with mouse IgG anti-β2-GPI antibody (ELISA)
Assay type: binding
Conditions: after washing with 0.05% Tween-20 in PBS
Protocol: Antigen exposing lipid aggregates were prepared according to example 2 by mixing 90% cardiolipin with 10% PE-bio. The lipid aggregates were then adsorbed on a 96-well streptavidin coated ELISA plate (Eurodiagnostica AB) at concentration 90 μg/ml. The plate was incubated for 1 h at room temperature. The plate was washed three times with 0.05% Tween-20 in PBS and then incubated with or without β2-GPI for 30 minutes.
To determine the amount β2-GPI bound to cardiolipin aggregates a mouse IgG anti-β2-GPI antibody was used. This antibody was detected with an alkaline phosphatase conjugated anti-mouse IgG antibody (Sigma-Aldrich).
All the antibodies were diluted in PBS with 1% BSA and incubated for 1 h at RT. The plate was developed with alkaline phosphatase yellow liquid system for ELISA (Sigma-Aldrich) and absorbance 405 nm determined after 10-30 min. Between each incubation step the plate was washed three times with 0.05% Tween-20 in PBS.

B1: β2-GPI: protein incubated with bound cardiolipin aggregates to form the cardiolipin-β2-GPI complex (protein, UniProt P02749 20-345, looked up)
Beta-2-glycoprotein 1: T1 sequence (P02749 20-345)
β2-GPI bound to cardiolipin aggregates (FIG. 8): remained associated with cardiolipin after washing with 0.05% Tween-20 in PBS
